Measurements reported in US20230020546A1, “APPLICATION OF PROGESTIN IN PREPARATION OF DRUG INHIBITING CYTOKINE STORM” (SHENZHEN EVERGREEN THERAPEUTICS CO., LTD., priority 2020, published 2023).

Assays:
[1] = tested on: hu-SCID mice; test: Rectal temperature after antibody injection in hu-SCID mice; type: in vivo
[2] = tested on: circulating cytokines in hu-SCID mice; test: Circulating cytokines in plasma of hu-SCID mice after OKT3 injection (multiplex immunoassay); type: in vivo; conditions: for Inhibition of OKT3-induced immune (cytokine) storm in an animal model: hu-SCID mice, overall conclusion; for IFN-γ Concentration / IL-1β Concentration / IL-2 Concentration / IL-4 Concentration / IL-5 Concentration / IL-6 Concentration / IL-10 Concentration / TNF-α Concentration: OKT3 10 μg IP alone
Description: […] A multiplex immunoassay system was then applied to the collected heparinized plasma to analyze cytokines. Cytokines measured included human IL-1β, IL-2, IL-4, IL-5, IL-6, IL-10, IL-12 (p70), IL-13, IL-17, IFN-γand TNF-α. […] The activation markers thereof were then analyzed by flow cytometry. Human peripheral blood mononuclear cells in the mouse spleen were blocked with 2.4G2 and then stained with fluorescently labeled CD69, CD25, CD45 and CD3.
After antibody injection, in order to determine if a cytokine storm was induced, we detected cytokines (human IL-1β, IL-2, IL-4, IL-5, IL-6, IL-10, IL-12 (p70), IL-13, IL17, IFN-γ and TNF-α) in the plasma of the hu-SCID mice.
On days 8 and 9 after intravenous injection of PBMCs in humanized mice (48 hours and 24 hours before antibody injection), a candidate drug PR2005 (5 mg/kg) was injected intraperitoneally to the animals. […] The results are detailed in Tables 1-4.

[3] = tested on: hu-SCID mice; conditions: mouse, in vivo, ip
Description: (§1) Each humanized mouse for the test was first intravenously injected with 2×10^7 PBMCs. After 10 days, each mouse was injected with OKT3 or control IgG (2 μg or 10 μg, IV or IP).
(§2) Clinical score measurement: as recommended by the Canadian Council for Animal Care (www.ccac.ca/en /standards/guidelines), we conducted preliminary studies to determine the most appropriate clinical symptoms and scoring criteria. […] Score: 0=normal activity; 1=normal activity, hairs upright, and tiptoe gait; 2=arched back, decreased activity, but there are still activities; 3=too few activities, but there are still activities when prompted; 4=dying. Mice with a clinical score of 4 were sacrificed.

[4] = tested on: hu-SCID mice; test: Clinical symptoms / clinical score after antibody injection in hu-SCID mice
Description: as §1, §2

**Q.** Which results are given for `CCCCCC(=O)O[C@]1(C(C)=O)CC[C@H]2[C@@H]3CCC4=CC(=O)CC[C@]4(C)[C@H]3CC[C@@]21C` [PR2005, hydroxyprogesterone caproate, reference compound]?
**A.** Body temperature change after receiving OKT3 ([1]; PR2005 5 mg/kg IP, 48 hours and 24 hours before antibody injection): no significant changes in body temperature; Concentration of cytokines in the blood vs animals using OKT3 alone ([2]; PR2005 5 mg/kg IP before OKT3): substantially lower; Inhibition of OKT3-induced immune (cytokine) storm in an animal model [2]: can inhibit the OKT3-induced immune storm; Inhibition of OKT3-induced immune (cytokine) storm in an animal model ([2]; listed as hydroxyprogesterone caproate): can inhibit the cytokine storm

**Q.** How did the “Mice dying and sacrificed” value [3] turn out when “OKT3: muromonab-CD3 antibody used to induce the cytokine storm in hu-SCID mice” was run?
**A.** The value was “one of 5”.

**Q.** And the Symptom observation ([4]; OKT3 2 μg IP)?
**A.** The Symptom observation was “unaffected”.

**Q.** And the “Mice needing to be euthanized” value ([4]; OKT3 2 μg IV)?
**A.** The value was “Two of four”.

**Q.** And the “Response (symptoms)” value ([4]; OKT3 2 μg IV, within 1 h)?
**A.** Its value is “moderate to severe”.

**Q.** And the Clinical score ([4]; OKT3 10 μg IP)?
**A.** Its Clinical score is “moderate”.

**Q.** What about the “Response (symptoms)” value ([4]; OKT3 10 μg IV) of the same compound?
**A.** Its value is “severe”.

**Q.** And the Mice sacrificed ([4]; OKT3 10 μg IV, at 1 h)?
**A.** The Mice sacrificed was “all mice were sacrificed”.

**Q.** And the Rectal temperature ([1]; OKT3 2 μg IP, 0 h)?
**A.** Its Rectal temperature is 37.7 °C.

**Q.** What about the Rectal temperature ([1]; OKT3 2 μg IP, 1 h) of the same compound?
**A.** Its Rectal temperature is 35.6 °C.

**Q.** What about the Rectal temperature ([1]; OKT3 2 μg IP, 2 h) of the same compound?
**A.** The Rectal temperature was 34.8 °C.

**Q.** And the Rectal temperature ([1]; OKT3 2 μg IP, 5 h)?
**A.** Its Rectal temperature is 35.4 °C.

**Q.** And the Rectal temperature change ([1]; OKT3 2 μg IP, similar to control human IgG)?
**A.** Its Rectal temperature change is “moderate changes”.

**Q.** And the Rectal temperature ([1]; OKT3 2 μg IV, 0 h)?
**A.** The Rectal temperature was 37.7 °C.

**Q.** And the Rectal temperature ([1]; OKT3 2 μg IV, 1 h)?
**A.** Its Rectal temperature is 31.7 °C.

**Q.** What about the Rectal temperature ([1]; OKT3 2 μg IV, 2 h) of the same compound?
**A.** Its Rectal temperature is 33.8 °C.

**Q.** What about the Rectal temperature ([1]; OKT3 2 μg IV, 5 h) of the same compound?
**A.** Its Rectal temperature is 34.9 °C.

**Q.** What about the “Transient hypothermia (rectal temperature)” value ([1]; OKT3 2 μg IV, at 1 h, partial recovery after 5 h) of the same compound?
**A.** Its value is “about 32 °C”.

**Q.** And the “Rectal temperature decrease (from 37° C.)” value ([1]; OKT3 10 μg IP or IV, within 1 h)?
**A.** Its value is no more than 32 °C.

**Q.** And the Rectal temperature ([1]; OKT3 10 μg IP, 0 h)?
**A.** Its Rectal temperature is 37.7 °C.

**Q.** And the Rectal temperature ([1]; OKT3 10 μg IP, 1 h)?
**A.** The Rectal temperature was 31.7 °C.

**Q.** What about the Rectal temperature ([1]; OKT3 10 μg IP, 2 h) of the same compound?
**A.** Its Rectal temperature is 31.1 °C.

**Q.** And the Rectal temperature ([1]; OKT3 10 μg IP, 5 h)?
**A.** Its Rectal temperature is 30.6 °C.

**Q.** And the Rectal temperature ([1]; OKT3 10 μg IV, 0 h)?
**A.** Its Rectal temperature is 37.7 °C.

**Q.** And the Rectal temperature ([1]; OKT3 10 μg IV, 1 h)?
**A.** The Rectal temperature was 31.9 °C.

**Q.** What about the Induced cytokines ([2]; OKT3 2 μg IP or IV, any time point) of the same compound?
**A.** Its Induced cytokines is “rarely detected”.

**Q.** And the “Time of TNF-α peak” value ([2]; OKT3 10 μg IP)?
**A.** The value was 1 h.

**Q.** What about the “IFN-γ Concentration” value ([2]; 1 h) of the same compound?
**A.** The value was 7015 pg/mL.

**Q.** And the “IL-1β Concentration” value ([2]; 1 h)?
**A.** The value was 44.0 pg/mL.

**Q.** And the “IL-2 Concentration” value ([2]; 1 h)?
**A.** The value was 39.0 pg/mL.

**Q.** What about the “IL-4 Concentration” value ([2]; 1 h) of the same compound?
**A.** Its value is 61 pg/mL.

**Q.** And the “IL-5 Concentration” value ([2]; 1 h)?
**A.** Its value is 72 pg/mL.

**Q.** And the “IL-6 Concentration” value ([2]; 1 h)?
**A.** Its value is 96 pg/mL.

**Q.** And the “IL-10 Concentration” value ([2]; 1 h)?
**A.** The value was 3319 pg/mL.

**Q.** And the “TNF-α Concentration” value ([2]; 1 h)?
**A.** The value was 1409 pg/mL.

**Q.** And the “IFN-γ Concentration” value ([2]; 2 h)?
**A.** Its value is 23574 pg/mL.

**Q.** And the “IL-1β Concentration” value ([2]; 2 h)?
**A.** Its value is 77.5 pg/mL.

**Q.** What about the “IL-2 Concentration” value ([2]; 2 h) of the same compound?
**A.** The value was 75.9 pg/mL.

**Q.** What about the “IL-4 Concentration” value ([2]; 2 h) of the same compound?
**A.** The value was 182 pg/mL.

**Q.** What about the “IL-5 Concentration” value ([2]; 2 h) of the same compound?
**A.** The value was 98 pg/mL.

**Q.** And the “IL-6 Concentration” value ([2]; 2 h)?
**A.** The value was 160 pg/mL.

**Q.** What about the “IL-10 Concentration” value ([2]; 2 h) of the same compound?
**A.** The value was 11001 pg/mL.

**Q.** And the “TNF-α Concentration” value ([2]; 2 h)?
**A.** The value was 1127 pg/mL.

**Q.** What about the “IFN-γ Concentration” value ([2]; 5 h) of the same compound?
**A.** The value was 25783 pg/mL.

**Q.** And the “IL-1β Concentration” value ([2]; 5 h)?
**A.** Its value is 97.4 pg/mL.

**Q.** What about the “IL-2 Concentration” value ([2]; 5 h) of the same compound?
**A.** The value was 89.4 pg/mL.

**Q.** What about the “IL-4 Concentration” value ([2]; 5 h) of the same compound?
**A.** The value was 259 pg/mL.

**Q.** And the “IL-5 Concentration” value ([2]; 5 h)?
**A.** Its value is 158 pg/mL.

**Q.** What about the “IL-6 Concentration” value ([2]; 5 h) of the same compound?
**A.** Its value is 252 pg/mL.

**Q.** What about the “IL-10 Concentration” value ([2]; 5 h) of the same compound?
**A.** Its value is 20052 pg/mL.

**Q.** What about the “TNF-α Concentration” value ([2]; 5 h) of the same compound?
**A.** Its value is 655 pg/mL.

**Q.** And the “Induction of cytokines (IL-1β, IL-2, IL-4, IL-5, IL-6, IL-10, IFN-γ)” value ([2]; OKT3 10 μg IP, concentrations gradually increased within 5 h)?
**A.** The value was “may induce production of multiple cytokines”.
